This assay addresses Human ASK1 catalytic (kinase) domain, T813A mutant (human) (UniProt Q99683). Briefly: AUC; sedimentation velocity; 13 μM protein in 10 mM HEPES pH 7.4, 120 mM NaCl, 0.25% glycerol, 4°C, 40,000 rpm; c(s) and c(M) distributions (SEDFIT).

By stoichiometry N is commonly meant the number of molecules, sites or subunits per partner or assembly. For the substance “Human ASK1 catalytic (kinase) domain, T813A mutant (from UniProt Q99683 659-951) (domain or fragment)”, the stoichiometry N came out at 2.

Source of the values: PMC2100151.
